Assay results from paper PMC6637871, “Structural and functional insights into the modulation of the activity of a flax cytokinin oxidase by flax rust effector AvrL567‐A” (Molecular Plant Pathology, 2018).

Key:
[1] = target: LuCKX1.1 protein (residues 44-534), purified (flax (Linum usitatissimum))
purified protein [2] = substrate: C/C(=C\CNc1ncnc2[nH]cnc12)CO; test: purified protein; settings: 0.5 mM DCPIP as electron acceptor, 1.6 µM LuCKX1.1, McIlvaine buffer pH 7.5, no AvrL567-A
purified protein [3] = substrate: CC(C)=CCNc1ncnc2nc[nH]c12; test: purified protein; assay type: biochemical, Linum usitatissimum; settings: 0.5 mM DCPIP as electron acceptor, 1.6 µM LuCKX1.1, McIlvaine buffer pH 7.5, no AvrL567-A

B1: AvrL567-A protein (residues 24-150), purified (natural protein)
chain: MEHVPAELTRVSEGYTRFYRSPTASVILSGLVKVKWDNEQMTMPLFKWIGGEQAEELHFCVHIAHSSGPKLNRARSLGTVNSNMDQHWAQAQRNSGATRRTIEGFHLFENDIPNFPDYIKIKLVPKT
Binder B1 has a turnover rate (Kcat) of LuCKX1.1 towards 2iP in the DCPIP kinetic assay, with 1.6 uM AvrL567-A against without it [1] of 50% and a turnover rate (Kcat) of LuCKX1.1 towards tZ in the DCPIP kinetic assay, with 1.6 uM AvrL567-A against without it [1] of 130%.

B2: LuCKX1.1 (Linum usitatissimum) (protein)
chain: LQGSIDYSTLAADFTGKDFGGVYSSNPLALIRPSGADDVARVLKSACRSSNLTVAARGNGHSINGQAMADGGIVLDMRSTEGNHFKILRINGGDHTAYADVSGGALWEDILMRCVSEYGLAPRSWTDYLRLTVGGTLSNAGVSGQAFRYGPQSSNVTELDVVTGKGDFLTCSPTHNSDLFFGALGGLGQFGVITRARIPLEPAPDMVRWIRMVYAEFEDFSRDAEWLVTQPEKESFDYVEGFAFVNSDSPADGWPSVPLYPNHMMEPTTPIHSGHQLLYCLELALHFNHSNSSSTVDSVVKRLIGGLRYMKGFKYEVDLSYVEFVMRVKRVEEDARAHGMWDAPHPWLNLFVSKADIAEFDRLIFKGLLHDGVGGPMLVYPLLRSKWDSRSSVVLPEGEDEIFYIVALLRSNPPYPKGPSVDKLVSQNDKIIQSCIQHGLGFKLYLPHYQSQHDWRRHFGDQWSKFVQLKLAFDPMAVLAPGQKIFTRTTK
notes: crystal model residues 44-532, two molecules per asymmetric unit; FAD covalently linked to His104
With B2 the Km (purified protein [2]) was 64 µM, the kcat (purified protein [2]) was 0.69 s⁻¹ and the Km (purified protein [3]) was 44 µM. For the same binder, the kcat (purified protein [3]) was 5.4 s⁻¹.
